The target in this test is RBD derived from the Omicron strain (BA.1 strain; B.1.1.529) (SARS-CoV-2).
With AZD8895 (antibody), the binding inhibition rate (%) is under 80%. Next, AZD1061 (antibody): under 80%; REGN10987 (antibody): under 80%. Next, S309 (antibody): under 80%.

Turning to REGN10933 (antibody), the binding inhibition rate (%) is under 80%. Substance LY_CoV555 (antibody) gave a binding inhibition rate (%) of under 80%. For LY_CoV16 (antibody) the value was under 80%; for ADG2 (antibody), under 80%.
